Data: the supplement of paper PMC10065799, “High-throughput profiling of sequence recognition by tyrosine kinases and SH2 domains using bacterial peptide display” (eLife, 2023)

What was measured:
[1] = tested on: c-Src; assay: phosphorylation enrichment, bacterial display (enrichment ratio); higher = better substrate or ligand; peptides without Tyr show the background
[2] = biological target: EPHB2 (UniProt P29323); assay: as above
[3] = biological target: EPHB1 (UniProt P54762); assay: as above
[4] = biological target: FGFR1 (UniProt P11362); assay: as above
[5] = tested on: AncSZ; assay: as above
[6] = biological target: FGFR3 (UniProt P22607); assay: as above
[7] = tested on: c-Abl (mouse); assay: as above
[8] = biological target: Jak2 (UniProt O60674); assay: as above
[9] = biological target: MERTK (UniProt Q12866); assay: as above
[10] = biological target: Fyn (UniProt P06241); assay: as above
[11] = biological target: Hck (UniProt P08631); assay: as above
[12] = biological target: Fes (UniProt P07332); assay: as above
[13] = tested on: Fer (mouse); assay: as above
[14] = biological target: SHP2-C SH2; assay: SH2 binding enrichment of the phosphorylated peptide, bacterial display (enrichment ratio); higher = better substrate or ligand; peptides without Tyr show the background
[15] = biological target: c-Src SH2; assay: as above
[16] = biological target: Grb2 SH2 (UniProt P62993); assay: as above
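For SH2 binding enrichment of the phosphorylated peptide, bacterial display in this document: peptide library displayed on the E. coli surface as eCPX fusions, selected cells deep-sequenced, score is each peptide's frequency after selection divided by its frequency in the input.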
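For phosphorylation enrichment, bacterial display in this document: 11-residue human phosphosite peptides and single-mutation variants displayed on the E. coli surface, counted by deep sequencing, each peptide's frequency after selection divided by its frequency in the unselected input library; frequency after pTyr selection over input frequency; kinase dosed for 20-30% of maximal phosphorylation in three min.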

Sequence of Hck (P08631 whole entry, looked up): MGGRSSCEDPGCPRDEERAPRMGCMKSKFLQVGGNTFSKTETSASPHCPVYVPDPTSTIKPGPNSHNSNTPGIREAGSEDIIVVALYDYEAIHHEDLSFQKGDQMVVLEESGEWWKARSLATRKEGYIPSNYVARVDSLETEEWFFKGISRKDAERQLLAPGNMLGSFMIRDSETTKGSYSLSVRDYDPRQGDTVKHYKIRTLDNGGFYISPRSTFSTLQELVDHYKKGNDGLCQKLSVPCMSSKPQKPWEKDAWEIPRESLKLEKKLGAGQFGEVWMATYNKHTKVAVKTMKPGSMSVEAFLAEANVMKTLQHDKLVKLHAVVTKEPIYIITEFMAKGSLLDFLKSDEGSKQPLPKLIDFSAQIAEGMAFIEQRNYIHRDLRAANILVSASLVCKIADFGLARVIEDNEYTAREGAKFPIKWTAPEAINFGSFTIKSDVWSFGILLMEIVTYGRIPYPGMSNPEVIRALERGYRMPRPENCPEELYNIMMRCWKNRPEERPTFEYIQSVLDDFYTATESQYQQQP
Sequence of MERTK (Q12866 whole entry, looked up): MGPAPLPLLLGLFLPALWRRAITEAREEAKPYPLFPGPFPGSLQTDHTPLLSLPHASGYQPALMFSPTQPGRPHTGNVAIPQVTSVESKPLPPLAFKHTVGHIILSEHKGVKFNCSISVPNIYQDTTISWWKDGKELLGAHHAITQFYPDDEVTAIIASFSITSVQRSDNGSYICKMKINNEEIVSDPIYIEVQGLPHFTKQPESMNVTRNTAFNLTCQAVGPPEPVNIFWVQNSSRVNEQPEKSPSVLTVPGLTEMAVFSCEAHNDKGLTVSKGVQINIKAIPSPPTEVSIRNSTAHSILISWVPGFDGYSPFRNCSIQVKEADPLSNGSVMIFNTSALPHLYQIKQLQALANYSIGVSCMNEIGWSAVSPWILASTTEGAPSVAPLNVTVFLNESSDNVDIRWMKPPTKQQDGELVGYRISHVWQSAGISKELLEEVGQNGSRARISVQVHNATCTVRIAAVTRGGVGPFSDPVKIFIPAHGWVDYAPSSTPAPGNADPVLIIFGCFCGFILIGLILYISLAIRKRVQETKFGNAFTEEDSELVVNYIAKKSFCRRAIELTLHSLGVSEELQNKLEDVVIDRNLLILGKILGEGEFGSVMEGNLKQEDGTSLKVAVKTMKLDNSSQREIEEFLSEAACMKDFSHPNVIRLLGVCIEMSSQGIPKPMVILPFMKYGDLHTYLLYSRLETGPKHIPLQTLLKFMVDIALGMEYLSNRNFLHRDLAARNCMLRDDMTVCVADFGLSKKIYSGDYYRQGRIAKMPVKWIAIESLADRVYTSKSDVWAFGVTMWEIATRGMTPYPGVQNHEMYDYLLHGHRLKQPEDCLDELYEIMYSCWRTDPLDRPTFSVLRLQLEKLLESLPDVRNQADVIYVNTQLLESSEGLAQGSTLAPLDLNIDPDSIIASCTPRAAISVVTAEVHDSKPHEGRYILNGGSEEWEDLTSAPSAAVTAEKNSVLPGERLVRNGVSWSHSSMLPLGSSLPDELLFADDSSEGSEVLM
Sequence of Fyn (P06241 whole entry, looked up): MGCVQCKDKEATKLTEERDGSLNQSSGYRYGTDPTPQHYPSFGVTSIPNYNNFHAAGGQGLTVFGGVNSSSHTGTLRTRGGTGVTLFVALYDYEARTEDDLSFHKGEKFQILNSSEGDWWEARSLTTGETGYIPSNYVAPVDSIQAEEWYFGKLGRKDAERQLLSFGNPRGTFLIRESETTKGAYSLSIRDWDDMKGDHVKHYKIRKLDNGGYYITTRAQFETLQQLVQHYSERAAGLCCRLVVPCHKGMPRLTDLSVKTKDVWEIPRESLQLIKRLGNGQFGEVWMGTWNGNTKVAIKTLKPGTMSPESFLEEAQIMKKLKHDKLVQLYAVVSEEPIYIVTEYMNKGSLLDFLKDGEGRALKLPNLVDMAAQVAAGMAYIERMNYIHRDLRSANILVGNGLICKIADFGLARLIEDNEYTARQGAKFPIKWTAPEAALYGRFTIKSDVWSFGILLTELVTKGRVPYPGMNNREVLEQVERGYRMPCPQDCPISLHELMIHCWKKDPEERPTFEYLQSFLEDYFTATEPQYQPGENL
Sequence of Fes (P07332 whole entry, looked up): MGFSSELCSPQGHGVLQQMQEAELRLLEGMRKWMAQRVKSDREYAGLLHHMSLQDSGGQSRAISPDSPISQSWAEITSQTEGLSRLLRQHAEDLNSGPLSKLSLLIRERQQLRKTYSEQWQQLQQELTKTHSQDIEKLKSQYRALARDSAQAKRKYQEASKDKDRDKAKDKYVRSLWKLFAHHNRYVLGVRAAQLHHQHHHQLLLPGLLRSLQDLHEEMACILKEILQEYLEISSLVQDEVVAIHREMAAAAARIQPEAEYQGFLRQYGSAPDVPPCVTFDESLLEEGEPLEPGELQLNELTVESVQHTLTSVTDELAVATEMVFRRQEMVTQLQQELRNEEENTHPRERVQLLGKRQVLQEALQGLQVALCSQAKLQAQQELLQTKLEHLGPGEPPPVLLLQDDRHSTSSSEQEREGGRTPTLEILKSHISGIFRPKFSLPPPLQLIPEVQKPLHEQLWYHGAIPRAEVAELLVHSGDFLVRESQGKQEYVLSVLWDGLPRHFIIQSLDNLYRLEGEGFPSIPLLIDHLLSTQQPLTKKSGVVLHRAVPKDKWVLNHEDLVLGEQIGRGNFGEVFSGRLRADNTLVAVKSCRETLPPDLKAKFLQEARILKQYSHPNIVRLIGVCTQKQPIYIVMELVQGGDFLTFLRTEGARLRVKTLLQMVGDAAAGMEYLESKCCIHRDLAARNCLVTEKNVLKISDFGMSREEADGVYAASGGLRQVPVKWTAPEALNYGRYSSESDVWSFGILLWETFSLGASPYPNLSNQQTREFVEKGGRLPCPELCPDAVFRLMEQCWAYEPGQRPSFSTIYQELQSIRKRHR
Sequence of EPHB2 (P29323 whole entry, looked up): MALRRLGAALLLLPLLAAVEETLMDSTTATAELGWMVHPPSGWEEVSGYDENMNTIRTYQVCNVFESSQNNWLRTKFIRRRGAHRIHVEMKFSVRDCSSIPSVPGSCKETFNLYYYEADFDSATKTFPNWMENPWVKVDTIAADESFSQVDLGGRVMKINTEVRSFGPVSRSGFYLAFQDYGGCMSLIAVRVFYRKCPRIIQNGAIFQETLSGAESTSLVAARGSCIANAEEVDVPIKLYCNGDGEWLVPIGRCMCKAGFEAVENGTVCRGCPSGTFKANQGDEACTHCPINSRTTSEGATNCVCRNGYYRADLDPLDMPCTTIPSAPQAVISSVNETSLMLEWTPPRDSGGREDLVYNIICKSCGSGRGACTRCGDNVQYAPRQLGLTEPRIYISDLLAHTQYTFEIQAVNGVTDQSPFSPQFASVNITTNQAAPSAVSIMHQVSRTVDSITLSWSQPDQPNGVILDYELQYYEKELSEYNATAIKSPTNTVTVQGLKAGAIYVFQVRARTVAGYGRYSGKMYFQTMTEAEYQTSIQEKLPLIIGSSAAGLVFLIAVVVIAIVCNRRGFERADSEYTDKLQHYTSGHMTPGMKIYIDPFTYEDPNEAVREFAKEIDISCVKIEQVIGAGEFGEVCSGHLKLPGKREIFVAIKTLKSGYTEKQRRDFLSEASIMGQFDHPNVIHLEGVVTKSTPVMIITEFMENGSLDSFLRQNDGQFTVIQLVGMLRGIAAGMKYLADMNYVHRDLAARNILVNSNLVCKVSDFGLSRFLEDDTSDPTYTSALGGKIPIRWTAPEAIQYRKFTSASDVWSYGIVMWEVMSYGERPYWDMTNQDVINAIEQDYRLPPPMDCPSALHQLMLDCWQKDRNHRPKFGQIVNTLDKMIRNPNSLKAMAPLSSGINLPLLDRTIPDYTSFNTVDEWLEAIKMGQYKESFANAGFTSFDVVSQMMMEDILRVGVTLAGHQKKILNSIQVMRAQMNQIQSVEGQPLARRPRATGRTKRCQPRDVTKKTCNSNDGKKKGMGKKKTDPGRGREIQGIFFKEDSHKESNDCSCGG
Sequence of Grb2 SH2 (P62993 whole entry, looked up, the tested form may be a part): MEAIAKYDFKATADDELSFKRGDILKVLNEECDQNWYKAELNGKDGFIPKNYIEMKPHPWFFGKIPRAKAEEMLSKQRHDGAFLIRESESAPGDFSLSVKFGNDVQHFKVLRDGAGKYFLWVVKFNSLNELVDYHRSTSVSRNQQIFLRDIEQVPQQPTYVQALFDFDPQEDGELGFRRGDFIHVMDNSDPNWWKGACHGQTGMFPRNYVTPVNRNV
Sequence of FGFR1 (P11362 whole entry, looked up): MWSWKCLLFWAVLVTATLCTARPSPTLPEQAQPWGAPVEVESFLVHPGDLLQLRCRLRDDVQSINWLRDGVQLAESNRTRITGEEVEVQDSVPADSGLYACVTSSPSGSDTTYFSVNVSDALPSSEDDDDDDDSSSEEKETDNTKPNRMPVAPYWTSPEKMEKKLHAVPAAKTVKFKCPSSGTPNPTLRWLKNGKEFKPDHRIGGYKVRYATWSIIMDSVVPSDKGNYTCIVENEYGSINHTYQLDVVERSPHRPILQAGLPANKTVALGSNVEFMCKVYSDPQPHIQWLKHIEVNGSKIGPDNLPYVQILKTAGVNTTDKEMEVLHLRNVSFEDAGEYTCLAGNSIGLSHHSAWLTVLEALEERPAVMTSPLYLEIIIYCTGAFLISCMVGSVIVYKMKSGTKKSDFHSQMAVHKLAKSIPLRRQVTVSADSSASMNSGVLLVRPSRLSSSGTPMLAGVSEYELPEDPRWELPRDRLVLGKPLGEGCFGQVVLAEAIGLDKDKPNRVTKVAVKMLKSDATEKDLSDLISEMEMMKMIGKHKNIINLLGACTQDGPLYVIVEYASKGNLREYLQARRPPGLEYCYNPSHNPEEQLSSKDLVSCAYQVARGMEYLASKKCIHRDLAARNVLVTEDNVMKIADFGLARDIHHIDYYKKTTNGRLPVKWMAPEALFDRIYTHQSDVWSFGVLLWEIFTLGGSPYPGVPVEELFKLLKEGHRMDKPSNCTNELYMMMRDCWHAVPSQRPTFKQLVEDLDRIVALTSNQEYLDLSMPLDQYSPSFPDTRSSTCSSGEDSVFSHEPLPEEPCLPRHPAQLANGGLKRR

Sequence | phosphorylation enrichment [1] | phosphorylation enrichment [2] | phosphorylation enrichment [3] | phosphorylation enrichment [4] | phosphorylation enrichment [5] | phosphorylation enrichment [6] | phosphorylation enrichment [7] | phosphorylation enrichment [8] | phosphorylation enrichment [9] | phosphorylation enrichment [10] | phosphorylation enrichment [11] | phosphorylation enrichment [12] | phosphorylation enrichment [13] | SH2 binding enrichment [14] | SH2 binding enrichment [15] | SH2 binding enrichment [16]
KIKGWYEKCEP [KRT26_Y119] | 0.47 | 0.573 | 0.594 | 0.515 | 0.996 | 0.779 | 0.786 | 1.07 | 0.446 | 0.442 | 0.527 | 1.21 | 0.541 | 0.693 | 1.26 | 0.935
MSSHHCDYKKY [ZNF445_Y428_Y428C] | 0.452 | 0.385 | 0.366 | 0.965 | 0.633 | 0.437 | 0.517 | 0.475 | 0.432 | 0.472 | 0.372 | 0.661 | 0.388 | 0.665 | 0.553 | 0.962
LAETSYVIVLE [MAGEA1_Y276_K278I] | 1 | 0.99 | 1.06 | 0.688 | 1.8 | 0.997 | 1.54 | 2.19 | 0.616 | 0.791 | 0.727 | 2.35 | 0.734 | 0.983 | 0.479 | 0.641
NVVVPYEPPEV [TP53_Y220_S215N] | 0.543 | 0.708 | 0.612 | 0.443 | 1.11 | 0.69 | 0.768 | 1.11 | 0.493 | 0.641 | 0.56 | 1.15 | 0.58 | 0.607 | 0.742 | 0.757
GTGTAYLCGVK [ALPL_Y117_A114G] | 0.348 | 0.412 | 0.551 | 0.446 | 0.694 | 0.489 | 0.685 | 0.675 | 0.379 | 0.435 | 0.395 | 0.754 | 0.511 | 0.679 | 0.543 | 0.902
VVPGSYDRLRV [IFT172_Y260_L257P] | 0.399 | 1.13 | 0.353 | 0.394 | 0.496 | 0.439 | 0.406 | 0.462 | 0.469 | 0.359 | 0.486 | 0.603 | 0.332 | 0.912 | 0.818 | 0.772
EVRTQYEEIAQ [KRT76_Y361_A359T] | 0.376 | 0.504 | 0.679 | 0.49 | 1.08 | 0.726 | 0.899 | 0.919 | 0.395 | 0.455 | 0.576 | 1.04 | 0.588 | 0.967 | 20.6 | 0.882
ITVCDYTNPCT [MYD88_Y276] | 1.26 | 0.691 | 0.583 | 0.521 | 1.66 | 0.719 | 0.651 | 1.11 | 0.426 | 0.401 | 0.415 | 1.02 | 0.395 | 0.603 | 0.701 | 0.968
HNLYSYPTKYE [MYO3A_Y1396_H1400Y] | 2.62 | 16.7 | 10.6 | 0.699 | 2.65 | 0.683 | 2.34 | 0.606 | 14.8 | 5.43 | 8.88 | 0.958 | 17 | 0.657 | 1.31 | 0.757
DLQDEYDFKRK [STAT1_Y170_C174R] | 0.476 | 0.54 | 0.495 | 0.472 | 0.992 | 0.643 | 0.588 | 0.916 | 0.355 | 0.465 | 0.472 | 1.16 | 0.463 | 0.682 | 0.505 | 0.902
FQNGMYGLHQD [SGSH_Y89_H84Y_YF] | 0.828 | 0.543 | 0.437 | 0.462 | 0.665 | 0.555 | 0.552 | 0.733 | 0.456 | 0.599 | 0.598 | 0.709 | 0.454 | 0.724 | 0.459 | 0.748
HNLDYYKKTTN [FGFR3_Y648] | 0.373 | 0.59 | 0.696 | 0.694 | 0.829 | 0.648 | 0.817 | 0.632 | 0.423 | 0.653 | 0.58 | 1.2 | 0.539 | 0.554 | 0.591 | 0.732
SHLSAFPALEG [CD5_Y465_Y465F] | 0.328 | 0.367 | 0.431 | 0.354 | 0.553 | 0.52 | 0.407 | 0.5 | 0.347 | 0.352 | 0.402 | 0.612 | 0.312 | 0.751 | 0.529 | 0.734
LLAGLYRGQAL [FGFR4_Y390] | 0.452 | 0.594 | 0.433 | 0.459 | 0.857 | 0.526 | 0.591 | 0.72 | 0.553 | 0.494 | 0.571 | 0.833 | 0.683 | 0.882 | 0.508 | 0.63
NARGLYYKLHN [GATA2_Y376_C373R] | 0.695 | 0.586 | 0.595 | 1.08 | 1.11 | 1.02 | 0.874 | 2.12 | 2.59 | 0.572 | 0.954 | 0.975 | 0.496 | 0.866 | 1.23 | 1.02
DRLASYLDKMR [KRT17_Y98_V102M] | 0.459 | 0.467 | 0.376 | 0.483 | 0.697 | 0.513 | 0.606 | 0.667 | 0.45 | 0.751 | 0.473 | 0.912 | 0.436 | 0.529 | 0.488 | 1.03
RSFSPYDFQPC [TNS1_Y796_YF] | 5.06 | 0.929 | 0.672 | 0.66 | 1.5 | 0.788 | 1.18 | 1.28 | 1.69 | 5.66 | 0.959 | 1.29 | 0.822 | 0.613 | 0.668 | 0.744

Sequence | phosphorylation enrichment [1] | phosphorylation enrichment [2] | phosphorylation enrichment [3] | phosphorylation enrichment [4] | phosphorylation enrichment [5] | phosphorylation enrichment [6] | phosphorylation enrichment [7] | phosphorylation enrichment [8] | phosphorylation enrichment [9] | phosphorylation enrichment [10] | phosphorylation enrichment [11] | phosphorylation enrichment [12] | phosphorylation enrichment [13] | SH2 binding enrichment [14] | SH2 binding enrichment [15] | SH2 binding enrichment [16]
TGDFGYRAPGY [TNS2_Y668] | 0.441 | 0.413 | 0.387 | 0.415 | 0.545 | 0.435 | 0.533 | 0.557 | 0.31 | 0.477 | 0.376 | 0.546 | 0.332 | 0.619 | 0.425 | 0.747
TTKGAYSLSIR [YES1_Y194] | 0.567 | 0.414 | 0.369 | 0.49 | 0.656 | 0.395 | 0.669 | 0.614 | 0.548 | 0.406 | 0.445 | 0.681 | 0.383 | 0.434 | 0.792 | 1.36
DTQNSYWCATS [TSC1_Y304_G305W] | 0.52 | 0.456 | 0.535 | 1.07 | 0.952 | 0.832 | 0.633 | 0.805 | 1.36 | 0.485 | 0.518 | 0.916 | 0.405 | 0.849 | 0.884 | 1.01
EGLKVYVNGTL [ADGRD1_Y183] | 0.418 | 0.68 | 0.633 | 0.527 | 1.22 | 1.05 | 0.848 | 1.24 | 0.469 | 0.497 | 0.457 | 1.33 | 0.491 | 0.757 | 0.502 | 1.68
FGCGMYSHLQG [LGR4_Y848_D844G_YF] | 2.53 | 0.744 | 0.879 | 0.795 | 1.1 | 0.916 | 1.04 | 1.06 | 3.76 | 0.713 | 1.71 | 1.09 | 0.745 | 0.731 | 1.1 | 0.875
IVTLKYPIEHG [ACTB_Y69_L65V] | 0.422 | 0.412 | 0.434 | 0.523 | 0.698 | 0.702 | 0.871 | 0.74 | 0.481 | 0.483 | 0.466 | 0.76 | 0.489 | 0.807 | 0.45 | 0.77
KHTLSYVDVGT [SDHA_Y629] | 0.283 | 0.42 | 0.573 | 0.724 | 0.703 | 0.589 | 0.53 | 0.552 | 0.295 | 0.348 | 0.431 | 0.685 | 0.392 | 0.967 | 0.759 | 0.817
LLIVEYAKYGS [RET_Y806] | 1.23 | 0.872 | 1.12 | 0.804 | 1.52 | 0.942 | 1.03 | 1.82 | 0.75 | 0.622 | 0.759 | 2.4 | 0.868 | 1.28 | 1.49 | 1.83
REIHDYIKHLG [UNC13C_Y308_D304E] | 1.02 | 0.663 | 0.699 | 0.371 | 0.631 | 0.741 | 0.794 | 0.843 | 0.723 | 0.821 | 0.511 | 1.26 | 0.651 | 0.475 | 0.512 | 0.788
IPPRRYFCSGV [STAMBP_Y36_R38C] | 0.393 | 0.466 | 0.342 | 0.428 | 0.642 | 0.447 | 0.593 | 0.667 | 0.432 | 0.478 | 0.464 | 0.739 | 0.403 | 0.621 | 0.416 | 0.691
DTKPVYQNLRQ [BOD1_Y82_A81V] | 1.07 | 0.44 | 0.549 | 0.511 | 0.596 | 0.456 | 0.708 | 0.621 | 0.533 | 1.07 | 1.29 | 0.752 | 0.507 | 1.65 | 3.29 | 20.8
EEGRVYVFRLS [ITGAE_Y549_YF] | 0.625 | 0.605 | 0.606 | 0.508 | 1.13 | 0.836 | 0.812 | 1.14 | 0.475 | 0.509 | 0.617 | 1.37 | 0.533 | 0.806 | 0.665 | 1.05
LKEIRYPPYTD [ALDH3B2_Y362_H361R] | 0.494 | 0.589 | 0.348 | 0.539 | 0.761 | 0.702 | 0.749 | 0.827 | 0.518 | 0.31 | 0.678 | 1.06 | 0.541 | 0.729 | 0.555 | 0.883
HFEFKYVINAI [MAOA_Y268_C266F_YF] | 0.576 | 0.89 | 0.686 | 0.391 | 1.66 | 0.854 | 1.26 | 1.81 | 0.678 | 0.441 | 0.668 | 2.11 | 0.829 | 0.772 | 0.561 | 0.814
RRGMPYGGLGD [TGM1_Y312_R315L] | 0.398 | 0.536 | 0.302 | 0.445 | 0.618 | 0.443 | 0.66 | 0.352 | 1.02 | 0.503 | 0.391 | 0.663 | 0.456 | 0.501 | 0.33 | 0.712
KKRSSYGNSSD [SELENOK_Y52_R50S] | 0.515 | 0.462 | 0.4 | 0.386 | 0.57 | 0.476 | 0.489 | 0.523 | 0.556 | 0.438 | 0.475 | 0.508 | 0.422 | 0.609 | 0.441 | 0.686
